Experimental data from the supplement of paper PMC9112550, “Optimization of the antimicrobial peptide Bac7 by deep mutational scanning” (BMC Biology, 2022).

Tested on: Escherichia coli TOP10
Assay: shrunken log2 fold change of peptide-encoding DNA abundance (4.5 h post-induction vs induction); higher = less antimicrobial activity (less host growth inhibition)
Details: time post-induction: 4.5 h; library: site-saturation at positions 5, 18, 19, 20
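Also: peptides expressed intracellularly from a pBAD plasmid library in pooled LB shake-flask culture, induced with 0.3% L-arabinose, DNA abundance read by NGS, three biological replicates, DESeq2 with apeglm shrinkage.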

In order of falling “shrunken log2 fold change” value:
1. RRIRKRPPRLPRPRPRPVWDPRP  2.04
2. RRIRGRPPRLPRPRPRPKHAPRP  1.21
3. RRIRGRPPRLPRPRPRPPLKPRP  1.03
4. RRIRWRPPRLPRPRPRPEWVPRP  0.927
5. RRIRGRPPRLPRPRPRPKWLPRP  0.749
6. RRIRMRPPRLPRPRPRPRKEPRP  0.704
7. RRIRPRPPRLPRPRPRPNARPRP  0.677
8. RRIRSRPPRLPRPRPRPKLWPRP  0.564
9. RRIRERPPRLPRPRPRPPGGPRP  0.56
10. RRIRRRPPRLPRPRPRPDLTPRP  0.521
11. RRIRPRPPRLPRPRPRPPLDPRP  0.517
12. RRIRARPPRLPRPRPRPTVCPRP  0.505
13. RRIRVRPPRLPRPRPRPTRTPRP  0.495
14. RRIRSRPPRLPRPRPRPFFWPRP  0.485
15. RRIRCRPPRLPRPRPRPMAAPRP  0.476
16. RRIRLRPPRLPRPRPRPASWPRP  0.454
17. RRIRTRPPRLPRPRPRPKHWPRP  0.441
18. RRIRCRPPRLPRPRPRPVRTPRP  0.39
19. RRIRWRPPRLPRPRPRPLDWPRP  0.355
20. RRIRTRPPRLPRPRPRPGPAPRP  0.35
21. RRIRARPPRLPRPRPRPVSEPRP  0.338
22. RRIRRRPPRLPRPRPRPSGGPRP  0.318
23. RRIRLRPPRLPRPRPRPKVRPRP  0.316
24. RRIRPRPPRLPRPRPRPVAGPRP  0.308
25. RRIRGRPPRLPRPRPRPLWYPRP  0.298
26. RRIRQRPPRLPRPRPRPMTAPRP  0.291
27. RRIRQRPPRLPRPRPRPPTMPRP  0.29
28. RRIRRRPPRLPRPRPRPTVMPRP  0.286
29. RRIRKRPPRLPRPRPRPMMAPRP  0.255
30. RRIRGRPPRLPRPRPRPNCIPRP  0.247
31. RRIRQRPPRLPRPRPRPELTPRP  0.232
32. RRIRKRPPRLPRPRPRPGMHPRP  0.213
33. RRIRDRPPRLPRPRPRPWCDPRP  0.211
34. RRIRRRPPRLPRPRPRPHCCPRP  0.208
35. RRIRRRPPRLPRPRPRPFVCPRP  0.191
36. RRIRSRPPRLPRPRPRPLRYPRP  0.166
37. RRIRPRPPRLPRPRPRPERIPRP  0.152
38. RRIRLRPPRLPRPRPRPIHWPRP  0.143
39. RRIRDRPPRLPRPRPRPMYAPRP  0.143
40. RRIRERPPRLPRPRPRPVGQPRP  0.129
41. RRIRQRPPRLPRPRPRPAFSPRP  0.12
42. RRIRLRPPRLPRPRPRPYTKPRP  0.119
43. RRIRARPPRLPRPRPRPVAIPRP  0.111
44. RRIRDRPPRLPRPRPRPTNWPRP  0.111
45. RRIRRRPPRLPRPRPRPVCYPRP  0.103
46. RRIRMRPPRLPRPRPRPKEFPRP  0.103
47. RRIRHRPPRLPRPRPRPIDQPRP  0.0834
48. RRIRERPPRLPRPRPRPTSWPRP  0.0831
49. RRIRTRPPRLPRPRPRPMKMPRP  0.0821
50. RRIRKRPPRLPRPRPRPMNPPRP  0.0725
51. RRIRVRPPRLPRPRPRPKADPRP  0.0681
52. RRIRHRPPRLPRPRPRPGVFPRP  0.0667
53. RRIRHRPPRLPRPRPRPCFSPRP  0.0626
54. RRIRHRPPRLPRPRPRPWCWPRP  0.0593
55. RRIRVRPPRLPRPRPRPGTEPRP  0.0578
56. RRIRERPPRLPRPRPRPIGVPRP  0.0489
57. RRIRARPPRLPRPRPRPANQPRP  0.0465
58. RRIRERPPRLPRPRPRPPRHPRP  0.0414
59. RRIRCRPPRLPRPRPRPQMEPRP  0.04
60. RRIRDRPPRLPRPRPRPSTMPRP  0.0367
61. RRIRTRPPRLPRPRPRPEGDPRP  0.0354
62. RRIRWRPPRLPRPRPRPNVHPRP  0.0272
63. RRIRIRPPRLPRPRPRPWGAPRP  0.0191
64. RRIRIRPPRLPRPRPRPGHMPRP  0.0184
65. RRIRWRPPRLPRPRPRPTHNPRP  0.0181
66. RRIRVRPPRLPRPRPRPIMGPRP  0.0179
67. RRIRSRPPRLPRPRPRPIDRPRP  0.0178
68. RRIRQRPPRLPRPRPRPRWMPRP  0.0157
69. RRIRQRPPRLPRPRPRPHEYPRP  0.0128
70. RRIRTRPPRLPRPRPRPDHLPRP  0.0101
71. RRIRKRPPRLPRPRPRPCDGPRP  0.00408
72. RRIRHRPPRLPRPRPRPWTHPRP  -0.00208
73. RRIRVRPPRLPRPRPRPWYDPRP  -0.00243
74. RRIRVRPPRLPRPRPRPHPNPRP  -0.00326
75. RRIRRRPPRLPRPRPRPEMIPRP  -0.00643
76. RRIRIRPPRLPRPRPRPAIYPRP  -0.00708
77. RRIRERPPRLPRPRPRPKYRPRP  -0.00726
78. RRIRFRPPRLPRPRPRPEENPRP  -0.00844
79. RRIRNRPPRLPRPRPRPCKIPRP  -0.00963
80. RRIRKRPPRLPRPRPRPVTCPRP  -0.0146
81. RRIRIRPPRLPRPRPRPHATPRP  -0.0163
82. RRIRLRPPRLPRPRPRPSGAPRP  -0.0192
83. RRIRHRPPRLPRPRPRPDEFPRP  -0.0223
84. RRIRLRPPRLPRPRPRPMKIPRP  -0.028
85. RRIRPRPPRLPRPRPRPGYPPRP  -0.0289
86. RRIRERPPRLPRPRPRPHIVPRP  -0.0314
87. RRIRIRPPRLPRPRPRPIWTPRP  -0.0318
88. RRIRSRPPRLPRPRPRPDELPRP  -0.0328
89. RRIRHRPPRLPRPRPRPEIWPRP  -0.0396
90. RRIRIRPPRLPRPRPRPDPIPRP  -0.0427
91. RRIRCRPPRLPRPRPRPWSFPRP  -0.0435
92. RRIRRRPPRLPRPRPRPIYCPRP  -0.0446
93. RRIRQRPPRLPRPRPRPNFRPRP  -0.0457
94. RRIRMRPPRLPRPRPRPECHPRP  -0.0482
95. RRIRFRPPRLPRPRPRPHCRPRP  -0.0499
96. RRIRKRPPRLPRPRPRPKDCPRP  -0.0519
97. RRIRVRPPRLPRPRPRPIAMPRP  -0.0565
98. RRIRMRPPRLPRPRPRPAEHPRP  -0.0575
99. RRIRHRPPRLPRPRPRPNKMPRP  -0.0582
100. RRIRKRPPRLPRPRPRPDRFPRP  -0.0614
101. RRIRFRPPRLPRPRPRPQRQPRP  -0.064
102. RRIRKRPPRLPRPRPRPEYLPRP  -0.0659
103. RRIRFRPPRLPRPRPRPNEMPRP  -0.0729
104. RRIRERPPRLPRPRPRPRIEPRP  -0.0877
105. RRIRYRPPRLPRPRPRPSANPRP  -0.0919
106. RRIRFRPPRLPRPRPRPRGLPRP  -0.0929
107. RRIRTRPPRLPRPRPRPSVDPRP  -0.108
108. RRIRARPPRLPRPRPRPHCLPRP  -0.116
109. RRIRWRPPRLPRPRPRPWVDPRP  -0.119
110. RRIRWRPPRLPRPRPRPCFGPRP  -0.119
111. RRIRIRPPRLPRPRPRPESIPRP  -0.12
112. RRIRRRPPRLPRPRPRPCSKPRP  -0.123
113. RRIRQRPPRLPRPRPRPVMLPRP  -0.124
114. RRIRFRPPRLPRPRPRPCECPRP  -0.138
115. RRIRPRPPRLPRPRPRPGYCPRP  -0.147
116. RRIRQRPPRLPRPRPRPWQVPRP  -0.154
117. RRIRDRPPRLPRPRPRPKMMPRP  -0.154
118. RRIRFRPPRLPRPRPRPWLQPRP  -0.163
119. RRIRRRPPRLPRPRPRPYAVPRP  -0.191
120. RRIRTRPPRLPRPRPRPDNTPRP  -0.191
121. RRIRFRPPRLPRPRPRPNQGPRP  -0.197
122. RRIRVRPPRLPRPRPRPNCHPRP  -0.201
123. RRIRCRPPRLPRPRPRPYDWPRP  -0.204
124. RRIRFRPPRLPRPRPRPCGTPRP  -0.207
125. RRIRLRPPRLPRPRPRPWLEPRP  -0.212
126. RRIRFRPPRLPRPRPRPKNLPRP  -0.225
127. RRIRYRPPRLPRPRPRPTTVPRP  -0.243
128. RRIRLRPPRLPRPRPRPDHKPRP  -0.257
129. RRIRSRPPRLPRPRPRPWCYPRP  -0.263
130. RRIRMRPPRLPRPRPRPYLMPRP  -0.357
131. RRIRGRPPRLPRPRPRPNYSPRP  -0.371
132. RRIRIRPPRLPRPRPRPIIAPRP  -0.389
133. RRIRYRPPRLPRPRPRPLDSPRP  -0.403
134. RRIRPRPPRLPRPRPRPSNEPRP  -0.406
135. RRIRWRPPRLPRPRPRPCMIPRP  -0.471
136. RRIRDRPPRLPRPRPRPHNIPRP  -0.53
137. RRIRFRPPRLPRPRPRPNVKPRP  -0.574
138. RRIRERPPRLPRPRPRPIRTPRP  -0.577
139. RRIRSRPPRLPRPRPRPKNLPRP  -0.599
140. RRIRSRPPRLPRPRPRPHYPPRP  -0.615
141. RRIRLRPPRLPRPRPRPLYFPRP  -0.646
142. RRIRHRPPRLPRPRPRPVCYPRP  -0.663
143. RRIRVRPPRLPRPRPRPMNSPRP  -0.675
144. RRIRIRPPRLPRPRPRPNNLPRP  -0.69
145. RRIRCRPPRLPRPRPRPFNYPRP  -0.836
146. RRIRSRPPRLPRPRPRPYFRPRP  -0.853
147. RRIRFRPPRLPRPRPRPNYDPRP  -0.866
148. RRIRFRPPRLPRPRPRPLCMPRP  -0.888
149. RRIRVRPPRLPRPRPRPYHNPRP  -0.946
150. RRIRYRPPRLPRPRPRPRMLPRP  -1.08
